In this test the target is Recombinant human Src expressed in Sf9 insect cells (purified recombinant full-length Src from Upstate … (human, UniProt P12931 2-536)). Nature of the test: cell-based or functional assay.

B1: pNaKtide (HIV-Tat-NaKtide) (peptide)
peptide: not shown
Consider B1, for which the “IC50 of Src inhibition (in vitro kinase assay)” value is approximately 5 nM.

These data come from US20110245167A1 (UNIVERSITY OF TOLEDO, published 2011).
